Reference: patent US20130203162A1 (EVROGEN IP JOINT STOCK, published 2013)
Substitutions are numbered along the chain they refer to.

Tests used:
[1] = target: the molecule itself; assay: gel filtration on Sephadex-100, self-association (~1 mg/ml dimer; about 10 mg/ml tendency to tetramers)
Description: (§1) Purified protein samples (˜1 mg/ml) were loaded onto a Sephadex-100 column (0.7×60 cm) and eluted with a solution of 50 mM phosphate buffer (pH 7.0) and 100 mM NaCl. EGFP, HcRed1 and DsRed2 (Clontech) were used as monomer, dimer and tetramer standards, respectively. In addition, a tendency to form tetramers has been indicated when recombinant purified EqFP578 was used for the gel-filtration at concentration of about 10 mg/ml.

[2] = target: the molecule itself; assay: gel filtration as in Example 2, self-association
Description: as §1
Recombinant EqFP578 ml was prepared, purified and characterized as described in the Example 2 for wild type EqFP578. Fluorescence properties of this mutant were similar, but not identical to the wild type EqFP578. It has excitation-emission spectral peaks at 553 and 574 nm, respectively (FIG. 3). […] Like wild type EqFP578, EqFP578 m1 is a dimer.

[3] = target: the molecule itself; assay: gel filtration, self-association
Description: as §1
Recombinant M1-NA was prepared, purified and characterized as described in the Example 2 for wild type EqFP578. According to gel-filtration data, M1-NA is a dimeric protein at a concentration of 1 mg/ml. Fluorescent properties of M1-NA are the same as those of EqFP578 ml. M1-NA is a bright red fluorescent protein, characterized with excitation/emission fluorescence spectra peaked at 553/574 nm. M1-NA fluorescence quantum yield=0.67, molar extinction coefficient (at 553 nm)=92,000 M(−1)cm(−1). M1-NA doesn't form aggregates in vitro, according to gel-electrophoresis data. It also doesn't form any noticeable aggregates upon expression in eukaryotic cells, as it was shown for HeLa and 293T cell lines.
It excitation/emission spectra peaked at 574/602 nm (see FIG. 4 for spectra). M1-602 nm fluorescence quantum yield=0.35, molar extinction coefficient (at 574 nm)=74,400 M″)cm⁽⁻¹⁾. According to gel-filtration data, M1-602 nm is a dimeric protein at concentration of 1 mg/ml.

[4] = target: the molecule itself; assay: gel filtration (self-association)
Description: as §1
Recombinant nrM181-5 was prepared, purified and characterized as described in the Example 2 for wild type EqFP578. nrM181-5 is a cyan fluorescent protein, characterized with excitation/emission fluorescence spectra peaked at 400/470 nm (see FIG. 7 for spectra). According to gel-filtration data, nrM181-5 is a monomeric protein at a concentration of 1 mg/ml. The protein is capable of photoconversion to the red fluorescent form in response to violet light irradiation.

B1: wild type Entacmaea quadricolor red fluorescent protein EqFP578 (other)
chain: MSELIKENMHMKLYMEGTVNNHHFKCTSEGERKPYEGTQTMKIKVVEGGPLPFAFDILATSFMYGSKTFINHTQGIPDLFKQSFPEGFTWERITTYEDGGVLTATQDTSLQNGCIIYNVKINGVNFPSNGSVMQKKTLGWEANTEMLYPADGGLRGHSQMALKLVGGGYLHCSFKTTYRSKKPAKNLKMPGFHFVDHRLERIKEADKETYVEQHEMAVAKYCDLPSKLGHR
notes: Recombinant protein from E. coli, purified on TALON resin; Dimer by gel filtration at ~1 mg/ml, with a tendency to form tetramers at about 10 mg/ml; not shown: N-terminal six-histidine tag from the pQE30 vector
B1: binds [1].

B2: EqFP578 m1 mutant (other)
chain: B1 chain with R32G, T68A, L79F, L110F, S131P, L138R
notes: Engineered mutant of EqFP578; also called EqFP578 ml
B2: binds [2].

B3: M1-NA non-aggregating mutant of EqFP578 (other)
chain: MGEYSELITENMHMKLYMEGTVNNHHFKCTSEGEGKPYEGTQTMKIKVVEGGPLPFAFDILATSFMYGSKAFINHTQGIPDFFKQSFPEGFTWERITTYEDGGVLTATQDTSFQNGCIIYNVKINGVNFPSNGPVMQKKTRGWEANTEMLYPADGGLRGHSQMALKLVGGGYLHCSFKTTYRSKKPAKNLRMPGFHFVDHRLERIKEADKETYVEQHEMAVAKYCDLPSKLGHS
B3: binds [3].

B4: M1-637 mutant of EqFP578 (other)
chain: B3 chain with Y4D, F113L, I118L, R141L, N146S, G155S, F177L, R191K, H200R
B4: binds [3].

B5: M1-602 mutant of EqFP578 (other)
chain: B3 chain with Y4D, F113L, I118L, R141L, N146S, G155S, S161G, F177L, R191K
notes: Engineered red-shifted mutant; also called M1-602 nm
B5: binds [3].

B6: nrM181-5 cyan mutant of EqFP578 (other)
chain: MSELIKENMHMKLYMEGTVNNHHFKCTSEGEGKPYEGTQTMKIKVVEGGPLPFAFDILATSFMYGSKTFINHTQGIPDFFKQSFPEGFTWERVTTYEDGGVLTATQDTSLQDGCLIYNVKIRGVNFPSNGPVMQKKTLGWEAHTEMLYPADGGLEGRSDMALKLVGGGHLIANFKTTYRSKKPAKNLKMPGVYYVDHRLERIKEADKETYVEQHEMAVAKYCDLPSKLGHKLN
notes: Derived from M1-mono1
B6: no binding (tested: 1 mg/ml) [4].

B7: Cyan-2-1 cyan mutant of EqFP578 (other)
chain: B6 chain with E36G, K42R, F53V, K67R, H143F, A172C, H197Y, M216V, K220R
notes: Derived from M1-mono1
B7: no binding (tested: 1 mg/ml) [4].
